Literature values, collected in PMC3221918.

Biological target: IL-15RαSu soluble ECD (Homo sapiens) (UniProt Q13261)
Chain of UniProt Q13261 (Q13261 31-95): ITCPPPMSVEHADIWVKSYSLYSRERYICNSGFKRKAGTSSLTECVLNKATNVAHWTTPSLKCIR

- Kd: 0.1 nM
Substance: IL-15 (from UniProt P40933)
